PMC2824085, “Identification of Novel Contributions to High-affinity Glycoprotein–Receptor Interactions using Engineered Ligands” (Journal of Molecular Biology, 2010)

Columns and labels:
soybean agglutinin = molecular target: T1, soybean agglutinin (soybean, UniProt P05046 33-285, a single, uniform Man9GlcNAc2 oligosaccharide on each subunit); assay: SPR; BiaCore 3000, CM5 chip; SBA or its glycopeptide amine-coupled, monomeric CRD of DC-SIGN flowed over; steady state, simple saturation model with linear background; 10 mM Hepes, 150 mM NaCl, 5 mM CaCl2, 0.005% P20, pH 7.4, 25 °C; settings: both partners purified
T1 construct: also called SBA; intact soybean agglutinin

[1] = molecular target: the molecule itself; assay: cross-linking + SEC; chemical crosslinking and gel filtration of the extracellular domain of MGL expressed in bacteria

T1 sequence (P05046 33-285): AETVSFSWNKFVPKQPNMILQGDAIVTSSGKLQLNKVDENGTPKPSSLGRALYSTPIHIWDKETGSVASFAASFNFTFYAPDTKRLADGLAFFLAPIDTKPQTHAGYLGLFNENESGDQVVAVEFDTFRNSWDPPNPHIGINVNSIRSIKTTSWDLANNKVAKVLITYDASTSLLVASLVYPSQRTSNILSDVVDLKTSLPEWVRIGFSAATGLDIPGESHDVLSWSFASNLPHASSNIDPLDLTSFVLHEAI

Binder | Kd (soybean agglutinin) | stoichiometry N [1]
monomeric carbohydrate-recognition domain (CRD) from DC-SIGN (domain or fragment, UniProt Q9NNX6 250-404, looked up, DC-SIGN, carbohydrate-recognition domain; it calls the CRD monomeric; also called monomeric CRD; dendritic cell-specific intercellular adhesion molecule 3-grabbing nonintegrin CRD) ERLCHPCPWEWTFFQGNCYFMSNSQRNWHDSITACKEVGAQLVVIKSAEEQNFLQLQSSRSNRFTWMGLSDLNQEGTWQWVDGSPLLPSFKQYWNRGEPNNVGEEDCAEFSGNGWNDDKCNLAKFWICKKSAASCSRDEEQFLSPAPATPNPPPA | 4 µM | 
trimeric extracellular domain (ECD) of rat macrophage galactose lectin (MGL) (domain or fragment, extra alanine residue appended at the N-terminus; rat macrophage galactose lectin, extracellular domain from residue 59 to the C-terminus; also called extracellular domain of MGL; source: expressed in bacteria, T7 promoter system) AQNSQLRRDLETLRTTLDNTTSNTKAELQALASRGDSLQTGINSLKVEVDDHGQELQAGRGLSQKVASLESTVEKKEQTLRTDLSEITDRVQQLGKDLKTLTCQLASLKNNGSAVACCPLHWMEHEGSCYWFSQSGKPWPEADKYCQLENSNLVVVNSLAEQNFLQTHMGSVVTWIGLTDQNGPWRWVDGTDYEKGFTHWAPKQPDNWYGHGLGGGEDCAHFTSDGRWNDDVCQRPYRWVCEMKLAKDS |  | 3
